Results reported in the supplement of paper PMC9170038.

System: MS2 coat protein
Assay: apparent KD of MS2 coat protein; designed switch direction (-1 OFF switch, 1 ON switch): -1; higher = weaker reporter binding
Method in brief: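 Three titration conditions were used: no input, 200 uM small-molecule ligand, and an oligonucleotide input. In each, SNAP-549-labelled MS2 coat protein was raised from 0.7 or 1.5 nM, doubling, to 3 µM over designed RNA switches transcribed on Illumina chips by stalled E. coli RNA polymerase. Curve fits of normalised cluster fluorescence gave values whose per-design median over clusters is the apparent KD.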

[1] = Eterna round: R95, input ligand: microRNA oligo, concentration not stated
[2] = input ligand: microRNA oligo, concentration not stated
[3] = Eterna round: R95, input ligand: FMN 200 uM
[4] = Eterna round: R95, input ligand: none

| Sequence | apparent KD of MS2 coat protein (input ligand: FMN 200 uM) | apparent KD of MS2 coat protein (input ligand: none) | apparent KD of MS2 coat protein [1] | other results |
| --- | --- | --- | --- | --- |
| UCUGCCGCCGUGAGGAUAUGCCCGCGCGCCCGCGGGCAGAAGGCACAUGAGGAUCACCCAUGUCCCGCGGCAUU [salish99_bmx4_r4_128] (Eterna round: R97, puzzle: Brourd's mod of Exclusion 4) | 36.4 nM | 17.4 nM | – | – |
| AGCAUGCUAGGAUAUACGAAACAUUAGGGUUCGUCGUAUGAACAUGAGGAUCACCCAUGUAGAAGGAGCGUGCA [Mat - Exclusion 2 - Mod of Hyphema - D95] (puzzle: Exclusion 2) | – | – | 17.9 nM | – |
| AAGAUGUCAGGAUAUUAGUAGUAAAUGAAUAAAAUUAUUACUGAGAAGGGACAUGAGGAUCACCCAUGUGUCUU [Mat - Exclusion 4 - Eli Mod - D11] (Eterna round: R97, puzzle: Exclusion 4) | 80.2 nM | 19.8 nM | – | – |
| AACAUGUGAGGAUAUUUAAGAAAAGAAAAGAAAGAAAAGAAAAAGAAGGCACAUGAGGAUCACCCAUGUAAGAA [EteRNA is fun!] (Eterna round: R96, puzzle: Exclusion 4) | – | – | – | apparent KD of MS2 coat protein [2]: 19 nM |
| ACAAUUAUGACAGGAUAUAGUUUUUGUUGGUCACUAGAAGGGUCUAUGCACAUGAGGAUCACCCAUGUUCUUUUUAUAUGCGAU [JR_ExcNG1_Sub018] (Eterna round: R96, puzzle: Exclusion NG 1) | 31.8 nM | 44.4 nM | – | apparent KD of MS2 coat protein [2]: 36.2 nM |
| GAAAAGGUAGGAUAUACGAAAAAGAAGGGUAGAAAAAAAACACAUGAGGAUCACCCAUGUAGAAGGACCAAAAG [salish99_ex2_r3_026] (puzzle: Exclusion 2) | – | – | 24.1 nM | apparent KD of MS2 coat protein [3]: 56 nM; apparent KD of MS2 coat protein [4]: 21 nM |
| UGAUCUACUGAGGAUAUUAUAUCACCCGACUGAUAAGAAGGCAGUACAUGAGGAUCACCCAUGUGGGUAGCCAU [Polaris9] (Eterna round: R97, puzzle: Exclusion 6) | 50.8 nM | 34.7 nM | – | – |
| CUAGUCCGAGGAUAUAUUAUGUGAAACAUGAGGAUCACCCAUGUAAUAUGAUGGAUGUAAAUAGAAGGCGGACUAG [Mat - Exclusion 5 - JL mod - D25] (puzzle: Exclusion 5) | – | – | 17.4 nM | apparent KD of MS2 coat protein [3]: 37.9 nM; apparent KD of MS2 coat protein [4]: 36.1 nM |
| UUUUAACAUGAGGAUCACCCAUGUGAGGAUAUCGUAUUUUUUUUUUUUUUUUUUUUUUCGAGAAGGCACAUUUU [My solution] (puzzle: Exclusion 1) | – | – | 6.56 nM | apparent KD of MS2 coat protein [3]: 1.24 nM; apparent KD of MS2 coat protein [4]: 16.5 nM |
| UGCAAGCUUAUGAGACCUCACAUGAGGAUCACCCAUGUGCUCGUCUUAUGGGCCGGCCGGCCGUUGGCCGGCCGGCC [-45.5, -68.5 kcal, A 16%] (Eterna round: R97, puzzle: Sensor, turn-off variant 1) | 16.6 nM | 16.5 nM | – | – |
| CCGAAGCUAGGAUAUACAUGAGGAUCACCCAUGUAAUCUCAUUUACGGGUCGGGCGCAGUAGAAGGAGCAAAGU [EX3 B.17] (Eterna round: R97, puzzle: Exclusion 3) | 17.5 nM | 15.6 nM | – | – |
| UGAAAGCUAGGAUAUACAUGAGGAUCACCCAUGUACCGGCUUGGCCCUGGUCCAAAGUGUAGAAGGAGCACGCC [Reedcedima] (puzzle: Exclusion 3) | – | – | 24.8 nM | – |
| UUUUUACAUGAGGAUCACCCAUGUCAGGAUAUCCUUAUAUUUUAUUAUUUUAUUUUUUGGAGAAGGGACUAUUA [My solution] (Eterna round: R96, puzzle: Exclusion 1) | 362 nM | 322 nM | – | apparent KD of MS2 coat protein [2]: 282 nM |
| ACAAGAAUAGGAUAUACAACAUGCCAGCUUCUUUACAACGCACAUGAGGAUCACCCAUGUAGAAGGGUUCUCUG [Exclusion-2-#14] (Eterna round: R97, puzzle: Exclusion 2) | 360 nM | 329 nM | – | – |
| UAAUAAAGUGUGAGGAUAUGCUGGUCCUUGGAUCAGCAGAAGGCACAUGAGGAUCACCCAUGUAAUAUAUAUAU [Mat - Exclusion 4 - JL Mod - D54] (puzzle: Brourd's mod of Exclusion 4) | – | – | 62.4 nM | – |
| CACCUGAACUCAGGAUAUCAUACAUGAGGAUCACCCAUGUAAUAAAUGAGAAUUUCGAAUGUAAUUGAGAAGGGAGAAUAAGGC [Ostricism 98 - Jieux - Exclusion NG 2] (Eterna round: R96, puzzle: Exclusion NG 2) | 88.8 nM | 38.8 nM | – | apparent KD of MS2 coat protein [2]: 33.8 nM |
| GUUAAACAUGAGGAUCACCCAUGUAAGGAUAUGCUGCGGUCGCGAUGAAGUGACUGCAGCAGAAGGUACAAUUG [Mat - Mod of JL D52] (puzzle: Exclusion 1) | – | – | 88.8 nM | – |
| GAGAUGUGAGGAUAUCUAGACCAUGGAAAAGCCACGGUCCGAGAGAAGGCACAUGAGGAUCACCCAUGUGAUGA [Quedte] (puzzle: Exclusion 4) | – | – | 43.7 nM | – |

| Sequence | apparent KD of MS2 coat protein (input ligand: FMN 200 uM) | apparent KD of MS2 coat protein (input ligand: none) | apparent KD of MS2 coat protein [1] | other results |
| --- | --- | --- | --- | --- |
| AUCUUGUCAGGAUAUCUUACAUAACAAUCGUAGUUACCAUUGGAGAAGGGACAUGAGGAUCACCCAUGUUAGCC [tap-tap-tappy42] (Eterna round: R97, puzzle: Exclusion 4) | 20.8 nM | 19.8 nM | – | – |
| AUGUUGCGAGGAUAUAUAAGGGUAUAUUAAUAAGAUAUGGAACAUGAGGAUCACCCAUGUAGAAGGUGCAUAAC [JR_Ex2_Sub041] (Eterna round: R97, puzzle: Exclusion 2) | 45.6 nM | 33.6 nM | – | – |
| UCCUCACAUGAGGAUCACCCAUGUCAGGAUAUACCCAUCCAGCGAAAUUAAAGCUGUAGUAGAAGGGACAUGCA [Raertele] (Eterna round: R97, puzzle: Exclusion 1) | 40.4 nM | 20.1 nM | – | – |
| CCGGCUUACUAGGAUAUCAGAGUCGAAAGACUCUGAGAAGGAGUAACAUGAGGAUCACCCAUGUGUCCUACCGG [Mod of Eli 9 - Jieux - Exclusion 6] (Eterna round: R97, puzzle: Exclusion 6) | 113 nM | 29.5 nM | – | – |
| UCGGCGCGAGGAUAUACGUUUGCGCGUUUUCGUUUUUGCGUACAUGAGGAUCACCCAUGUAGAAGGCGCGCCGC [Apr-15 SS2-16] (puzzle: Exclusion 2) | – | – | 11.4 nM | – |
| UUCGGCGGAGGAUAUACAUAUUUUUGUUGAAUCGGCGGAAAACAUGAGGAUCACCCAUGUAGAAGGUUGUUGAA [-16.3, -13.4 kcal, A 30%] (Eterna round: R97, puzzle: Exclusion 2) | 27.2 nM | 32.3 nM | – | – |
| GGUCCGAGUGUGAGGAUAUGCUGGUCCUUGGAUCAGCAGAAGGCACAUGAGGAUCACCCAUGUGGUGUCGGACC [Mat - Exclusion 4 - Eli Mod - D32] (Eterna round: R97, puzzle: Brourd's mod of Exclusion 4) | 140 nM | 932 nM | – | – |
| UCUCGCGGGCAAGGAUAUCCUACGCUGUUCUGGCCCGUGUUUGUUACAUGAGGAUCACCCAUGUGGGAGAAGGUGCACCAGGGC [Design 41] (Eterna round: R96, puzzle: Exclusion NG 2) | 62 nM | 76.4 nM | – | apparent KD of MS2 coat protein [2]: 36.5 nM |
| GUGAAACAUGAGGAUCACCCAUGUGAGGAUAUGAUUAAGUAAUGAUGAAAGUAUAUAUUCAGAAGGCACAAUGG [Mat - Mod of JL D73] (puzzle: Exclusion 1) | – | – | 83.3 nM | apparent KD of MS2 coat protein [3]: 132 nM; apparent KD of MS2 coat protein [4]: 152 nM |
| AGCCAAGCAGGAUAUGCCCGGGAUAACAUGAGGAUCACCCAUGUGACCGAUUGAUGUCCUGCAGAAGGGCUUGGGA [Mod of ViennaUCT - Jieux - Exclusion 5] (Eterna round: R97, puzzle: Exclusion 5) | 83.2 nM | 17.9 nM | – | – |
| UUUUUUUGAGUAAGGAUAUGAUGCAGGAAACUGCGUCAGAAGGUACAUGAGGAUCACCCAUGUUAAUUUUGUUU [Explosion 14 - Jieux - Brourd's mod of Exclusion 4] (Eterna round: R97, puzzle: Brourd's mod of Exclusion 4) | 18.4 nM | 20.3 nM | – | – |
| CAUGGCACGUAGGAUAUCUCGCAGCCCGGCUGCAGAGAAGGACGUACAUGAGGAUCACCCAUGUAUGAUCCAAA [Laquus] (puzzle: Exclusion 6) | – | – | 24.1 nM | – |
| GGAGGACGAGCAGGAUAUUUUCACAUGAGGAUCACCCAUGUGUAAUCAGGGUAAUCCUCCGCCGAAAAGAAGGGUUCGGAAUAA [Mat - Exclusion NG 2 - Mod of JL - D82] (Eterna round: R96, puzzle: Exclusion NG 2) | 60 nM | 70.5 nM | – | apparent KD of MS2 coat protein [2]: 52.4 nM |
| AUUUAACAUGAGGAUCACCCAUGUGAGGAUAUGUAAAUUUUAAACAAAUAGGAAAUGAACAGAAGGCACACCGG [JR_Exclusion1_Sub006] (puzzle: Exclusion 1) | – | – | 41.6 nM | apparent KD of MS2 coat protein [3]: 61.7 nM; apparent KD of MS2 coat protein [4]: 37 nM |
| CCAAAGUCAGGAUAUACAUGAGGAUCACCCAUGUAAAAUUUUAAUUUAAUUUGAAGGUGUAGAAGGGACAAACC [Ex3 #32] (Eterna round: R97, puzzle: Exclusion 3) | 30.5 nM | 30.3 nM | – | – |
| ACAUGAGGAUCACCCAUGUGACAAUAAUGGCUGAUACAGAGACAGGAUAUAGGUGCAUAUCUAACCUAGAAGGGUCAUGACUGG [Deportation 72 - Jieux - Exclusion NG 3] (Eterna round: R96, puzzle: Exclusion NG 3) | 29.1 nM | 36.6 nM | – | apparent KD of MS2 coat protein [2]: 30.6 nM |
| UGAAAGUGAGGAUAUCCAAUAUAUGACAUGAGGAUCACCCAUGUUUCCACUCGUACCUCCGGAGAAGGCACAAAGU [Ex5 #58] (Eterna round: R97, puzzle: Exclusion 5) | 26.2 nM | 28.8 nM | – | – |
